Assay results published in the DeepSol protein solubility set.

Test: soluble on expression in E. coli; label from the status in PepcDB or PDB records

Sequence	soluble on expression in E. coli
MGSDKIHHHHHHMQVEGLSINLATIREQCGFAEAVDICLKHGITAIAPWRDQVAAIGLGEAGRIVRANGLKLTGLCRGGFFPAPDASGREKAIDDNRRAVDEAAELGADCLVLVAGGLPGGSKNIDAARRMVVEGIAAVLPHARAAGVPLAIEPLHPMYAADRACVNTLGQALDICETLGPGVGVAIDVYHVWWDPDLANQIARAGKMKAILAHHICDWLVPTKDMLTDRGMMGDGVIDLKGIRRRIEAAGFHGAQEVEIFSADNWWKRPADEVIATCVERYRNCC	not soluble
SLAFEPPRRLVRAFGETAPEGDDWLATLPEVAERAVARRGLTVERVQVPGGRSSLVVLVRTAEGAPAVLKLAPRRARPESERAALVHWGGRGAVQVREEGDEEGVLLLERLHPDVSVRSLPEAKALLEAAGTLRRLWVEPPGSHPFETVAERTGRQAEAMRAGAAADAQVAPLVDAALAARAELLGGPSEQRLLHGTFRQSKVLAGDRMPWLAVGPDPVVGESAFDLARLVRDRVEDLIAQPSGASTTRRRIKRLAESLEVDQERLRGWTLFRAVESGVRARRVGRERDAELLLEFAGWL	soluble
SLKKILILDDETSVLNALQRQLIRNNWQVISFKHPATALDYAKHVFFPIVITDYRMPQMSGVEFLLEFQKLQPYAYKIMLSGQAGEYGMTEAINQAKIDYFIHKPWDNCQLLNQIDKGLNHYRQTIKHLLKTNSKRMSREDYLIWYEKLVEQACPSITKVKKNPLGWIEAEEG	not soluble
MGVALAAMCLMSAQAQRRNEIQVPNLNGYTTLKCDFHMHSVFSDGLVWPTVRVDEAYREGLDAISLTEHIEYRPHKKDIIADHNRSYELSQKQAKKLGILLIRGSEITRSMPPGHFNAIFLNDSNPLEQKAYKDAFNEAKKQGAFIFWNHPGWARQQPDSTLWWPEHTQLYNDGCMHGIEVANGGLFMPEAIQWCLDKNLTMIGTSDIHQPIQTDYDFSKGEHRTMTFVFAKERSPEGIREALDNRRTAVYYRELVIGREEILRPFFEKCVDIKEVKRTEKEVTFSVMNATDLVLKLKKTAHDPSLVYFREMTLKPHTQHTISVKFDNGIKGGDCNFEVTNFIVAPDKGLDYTIKL	not soluble
MDLQTSSKFLQNQLAHLFQCERDSADVENSEGCFSTGNDPAFKDERLRFEFHTEPFNRRYLLRVVKVPP	not soluble
MSLITVANRIFVNPERAAAFEERFRRRPRRVDRQPGFIADHVLRPTQAGDPYVVLSFWDSRAAFEAWRTSPGFKDGHKEGHHHHHH	not soluble
MNAGILGVGKYVPEKIVTNFDLEKIMDTSDEWIRTRTGIEERRIARDDEYTHDLAYEAAKVAIKNAGLTPDDIDLFIVATVTQEATFPSVANIIQDRLGAKNAAGMDVEAACAGFTFGVVTAAQFIKTGAYKNIVVVGADKLSKITNWDDRTTAVLFGDGAGAVVMGPVSDDHGLLSFDLGSDGSGGKYLNLDENKKIYMNGREVFRFAVRQMGEASLRVLERAGLEKEDLDLLIPHQANIRIMEASRERLNLPEEKLMKTVHKYGNTSSSSIALALVDAVEEGRIKDNDNVLLVGFGGGLTWGALIIRWGK	not soluble
MGRVAEKVIIIGNNFGNDKSAVTVLFTDNMEKENKAAVVGVDNTTIYCMAPRQAEGFNKITVKVNDQTVVADETFKYSVSENVSTIAGDFVQADGAGKDGSLAEATFGQMFGVACIDEQSGIVGQAWNNNSVRYISIDEDAVITIQSGPVVGKVAVSNDKTLAYGATINGANTVYVYKKSQAWVPSRLSDISSGTDVWAVALNGDNQWLYYVTANGRLGRIEVDNPTHNEILFEHNDFSGGPFAYIAYSAFEDCFYVTTDKNKILKVWVKEDGTHAYEQINQNNTGTTDGFLADEAKFQYLRGLTIDEDGNIFVCQGDNSHVIRKIAYDENMEKRYVTTVLGTSTVHGTDDGSPDIALFNGPQDISYDGNGGYWIAMRYEPALRKYSIELEHHHHHH	soluble
SLPYRGTLVMLMNEEVNKIITLCGKDWAKIGVEFIFLGGKQECENCKIKKTCLKLKEGAKYKIVGLRDGAVQECPLHDEGVVAVEVVELPIIALVDSKIAVEGAKIHYEQRKCDVYDCSMYSLCHPIELNNGETVIVEKVIGDAPEQCRKGHSVIVAELRRAEE	soluble
MSLKWAHPIPFPETGCVLVATEKLDGYRTFARTVVLLLRAGTRHPQEGPFGVVINRPLHKNIKHMKSTKTELATTFSECSLYFGGPLEASMFLLKTGDKTKIPGFEEVMPGLNFGTRNSLDEAAVLVKKGVLKPQEFRFFVGYAGWQLDQLREEIESDYWHVAACSSDLICGASSENLWEEILQLMGGQYSELSRKPKLDIEGHHHHHH	soluble
MSLDWQTLLTRERLGKPVHSNDELGRSAFHKDHDRIIFSGAFRRLGRKTQVHPVSSNDHIHTRLTHSLEVACVGRSLGMRVGEILREELPEWCDPSDLGVIVQSACLAHDIGNPPFGHSGEDAIRNWFQQAAGRGWLDEMSDAERSDFLHFEGNAQGFRVLTQLEYHQFDGGTRLTYATLGTYLKYPWTSRHAEALGYKKHKFGCYQSELPLLEQITHKLGMPQLDDERWARHPLVYLMEAADDICYGLIDLEDGLEMELLEYSEVEALLLGLVGDDLPDTYRQLGPRDSRRRKLAILRGKAIEHLTNAAARAFVDQQQALLAGQLAGDLVEHMHGPAKLCVQRAKAIAREKIFQDKRKTLHEIGAYTTLEILLNAFCGAALEQYGGHTPSFKNRRILDLLGRNAPDPQWPLYRAFLQVIDFIAGMTDSYATEMAREMTGRSSEGHHHHHH	soluble
SYPSLFAPLDLGFTTLKNRVLMGSMHTGLEEYPDGAERLAAFYAERARHGVALIVSGGIAPDLTGVGMEGGAMLNDASQIPHHRTITEAVHQEGGKIALQILHTGRYSYQPHLVAPSALQAPINRFVPHELSHEEILQLIDNFARCAQLAREAGYDGVEVMGSEGYLINEFLTLRTNQRSDQWGGDYRNRMRFAVEVVRAVRERVGNDFIIIYRLSMLDLVEDGGTFAETVELAQAIEAAGATIINTGIGWHEARIPTIATPVPRGAFSWVTRKLKGHVSLPLVTTNRINDPQVADDILSRGDADMVSMARPFLADAELLSKAQSGRADEINTCIGCNQACLDQIFVGKVTSCLVNPRACHETKMPILPAVQKKNLAVVGAGPAGLAFAINAAARGHQVTLFDAHSEIGGQFNIAKQIPGKEEFYETLRYYRRMIEVTGVTLKLNHTVTADQLQAFDETILASGIVPRTPPIDGIDHPKVLSYLDVLRDKAPVGNKVAIIGCGGIGFDTAMYLSQPGESTSQNIAGFCNEWGIDSSLQQAGGLSPQGMQIPRSPRQIVMLQRKASKPGQGLGKTTGWIHRTTLLSRGVKMIPGVSYQKIDDDGLHVVINGETQVLAVDNVVICAGQEPNRALAQPLIDSGKTVHLIGGCDVAMELDARRAIAQGTRLALEI	soluble
GAMADDAAIQQTLAKMGIKSSDIQPAPVAGMKTVLTNSGVLYITDDGKHIIQGPMYDVSGTAPVNVTNKMLLKQLNALEKEMIVYKAPQEKHVITVFTDITCGYSHKLHEQMADYNALGITVRYLAFPRQGLDSDAEKEMKAIWCAKDKNKAFDDVMAGKSVAPASCDVDIADHYALGVQLGVSGTPAVVLSNGTLVPGYQPPKEMKEFLDEHQKMTSGK	soluble
GMSNKKLIINADDFGYTPAVTQGIIEAHKRGVVTSTTALPTSPYFLEAMESARISAPTLAIGVHLTLTLNQAKPILPREMVPSLVDEAGYFWHQSIFEEKVNLEEVYNEWDAQIISFMKSGRRPDHIDSHHNVHGKNKKLLGVALALARKYQLPLRNASRSIETKDYLELYQDVRTPDEMLYQFYDKAISTETILQLLDMVVCSEGEVFEINCHPAFIDTILQNQSGYCMPRIREVEILTSQEVKEAIEERGILLANYESLAM	soluble
MGSDKIHHHHHHMKTEIVEIESECLKDNFLKDDWKRQILVYRPDDAEGGLPLFIELAGTNWRPRTHNKFSLIIEKLFSSGLKAVVLNPNFSTRYNMNQYLNSPAVGSYEDFIVKELIPYFKDKYGTDHTALFGKSSGGFGSYTLAARHPDIIDGFADHFGDSCFFYLYADDMAAAFRYIQRHGKSESVKMLTSHMPSDDEMKVLNVIGSSAFYSPDMNDVNGFDLPFDEDTGELIEDVWQRWVQFDPAKNVLKYSGALKKMKAIYLDVGTNDEYKLYIGTRALHKKLGLANIDHYYEEFNGGHFGNSERYLYSLPFLYRKLNDTA	not soluble
MAHHHHHHMITLQLEQHRQQLENELRKVQLQQAQQQQQLQHVQHHHNQHNQHQQQQQLQYQQSLPPVQTTMVTIDGRLYRMVSASSGEAFVNRGQPCRDLHFVDRSALVSDGSAGADGRTEAAAPQPSNHPGVCMPVSPQAELSPQQQQQHMIITVAGDRSALGETTSAAAAASLAKSSAPGTNVMLVMPTPSASHKVKYGY	soluble
MTKKSTKSEAASKTKKSGVPETGAQGVRAGGADHADAAHLGTVNNALVNHHYLEEKEFQTVAETLQRNLATTISLYLKFKKYHWDIRGRFFRDLHLAYDEFIAEIFPSIDEQAERLVALGGSPLAAPADLARYSTVQVPQETVRDARTQVADLVQDLSRVGKGYRDDSQACDEANDPVTADMYNGYAATIDKIRWMLQAIMDDERLD	soluble
MAHHHHHHMKALQRGWRVICATRGGVPIHGSPLYNDFTSLQQKHGDTLSQGVAHDTCHVPQPLEFVSLDATSRLQVFQFMDDHPDASAIISCIGLLTRDHEMARRVCGDANVNIAAALYERRAVARRMVLISAEPVGTRAGFFLNSRWALKGYFMGKRVAERAVLENLGDDGAVLRPGFIYGTRHVPLGEGCVPVPLWPIGKPLEAVLRPLHLHGLLVPPISVDVVAEAAVRLAEAPGPSTVLDYYGMQQVCGLPQDGHHVLGG	not soluble
MGSDKIHHHHHHMSDITHTGEHQALVVGATGIIGSAILHRLGAAEGWTAIGLSRSRRVAEGRARMLEVDLLDPQDCARKLGALNRITHIFYAAYQARPSRAEEVAPNVQMLRNVVDAVSGRARGLKKIVLITGAKFYGIQWGRVKTPMKETDARQLPPNFYYDQEDFLRDAQRQADWHWCNLIPPFVSGYSVGNPMNLVMAIGVFASLSRELNLPLRFPGLPGAWSALQQIADAEQIAAAAHWAATSPAANNEAFNVTNGDPIRWENFWPAVAGHFGMRLEAPKTLPLGRLMADNEAAWARMVERYRLQAASIAKLVDWNWADYMFRMEYDVLMETGKIRRAGFQDCVDTTERFLARFRQLQQQQIIPR	not soluble
RRKPGKCPVTYGQCLMLNPPNFCEMDGQCKRDLKCCMGMCGKSCVSPVKA	soluble
QEARTGNDIAQLPAISVTGREISDLTEGTNAYTTEAMSTATGLTLSPRETPQSVSVVTRQQIEDQGLTDTGAILATAPGISVTRSDSNRYSFSARGFTIDNFQFDGLVSPILSQWNYGSTDMDAAIYDHVEIVRGATGLMTGSGNPSAAVNFVRKRPLREFAATFNASVGSWDYVRGDADISVPITEDGRIRSRLVAAYSQGDSYVHFLDTRRRTFYGVVSADLTPDTVLTTSVEYQHNHSNGFGSGFPLFYSDGSRTDFNRSVANNAPWARQDTEATTYFVDLTHRFTNDWKLRAAYSHTDGRYLMKHVYRGGYPDRHTGIIAAPPAFSNYDGNLDRDDIHFSLSAPFEAFGLRHEVALGWMSIDNHSDIQRYAMVGPAPAIGSFFDWRRAGSHHHHHHHIQEPSWADTLSPADDVRTKQTGAYLVGRFALAEPLHLIVGDRWSDWKTKQMYFGSRREYRIKNQFTPYAGLTYDINDTYTAYASYTEIFQPQNARDTSGGILPPIKSKSYELGLKAAYLEGRLNTSAALFQTRQDNLAQVIPGSSIPGFPNMQASRAASGAKVEGIDLEASGQILPDWNIGASYTHFTTKDASGNPINTNHPRSLFKLYTTYRLPGALHRLTVGGGVDWQSRMYQAAASPRGNVEVEQDSYALVSLMARFDFNKKLSATLNVNNLFDKKYYDQIGFYSQGWWGAPRNVMLNLRAQY	soluble
